Test results taken from the DeepSol protein solubility set.

Assay: soluble on expression in E. coli; label from the status in PepcDB or PDB records

Sequence | soluble on expression in E. coli
MGSDKIHHHHHHMVKTNVTIMRGGTSKGVFFHESAMPNNKNEWEPFLLDVMGSPDKRQIDGLGGGNSLTSKVAIIKKAYTSDIDVHYTFGQVSISEEKVDFKGNCGNISAAVGPFAIEEGLVKAKEPMTAVRILNTNTNKMIIAEVEVEDGQVKYDGDVTISGVPGSGSPIYLNFHDAAGSVTGHLLPTGNSSEFLDTSQGQIEVSIIDYANPLVFVEASSIGLDGTELAEEFTDLQLAQFEELRSIAAEKCGFASRFSATKLSPAVPKLAIVAKPEKYKDSTGAWHSSVEMDLHIRMMSMQKSHQALAVTGAICTTRALSVEGAIPARIAKNHSTKVRLAHSSGIIETMVEPTGIKIVRTARRIMDGTVYTHGDYQMM | not soluble
MSLRPRVLLVEDSTSLAILYKQYVKDEPYDIFHVETGRDAIQFIERSKPQLIILDLKLPDMSGEDVLDWINQNDIPTSVIIATAHGSVDLAVNLIQKGAEDFLEKPINADRLKTSVALHLKRAKLEDLVENIQSTFDRHNYHGFIGSSLPMQAVYKTIDAVAPTSASVFIVGESGTGKEVCAEAVHRQSDRRDKPFIAINCGAIPRDLMESEIFGHVKGAFTGATTDRKGAATLAHGGTLFLDELCEMELEMQKTLLRFLQTGTYTPLGGTKEMKVDVRIICATNRDPLTEVEEGRFREDLYYRVHVVPIDMPPLRERGSDIVTLAKHFLTTYAKEDKKKFSNIDTEAQHVIKHYEWPGNVRQLQNIIRNIVVLNNDEKVTVAHLPAQLTQKKTQARTVTPVHVEGHHHHHH | soluble
MGSDKIHHHHHHMIRSLWIAKTGLDAQQMQMDVIANNLANVSTNGFKKTRAVFEDLLYQNIRQPGAQSSQQTQLPSGLQLGTGVRPVATERIHIQGNLQQTGNNKDVAISGEGFFQVLLPDGSTAYTRDGAFQLDNQGQLVTASGFTVQPAIIVPPNALSLTVGRDGTVSVVLPDNPNNAVQIGTFQLATFINPAGLQSRGENLYIETAASGPANINQPGLNGTGLLVHQYLETSNVNVAEELVSMIQTQRAYEINSKAISTSDQMLQRLSQL | not soluble
MSLAVERLFGTNGIRGIPNDDMSPDFAMSVGKAIGTYVSGEIAFGTDTRLTGDMIKNAVIAGILSTGISVIDLGVLPTPAIQYYSKKHGIYAVVITASHNPPQYNGIKVIDKDGTELERPGEEKIEEIFYSKAFRVVKWENIGRIRQVSDAIDIYINGVISNVDSDNIKSHAFKVLADAGNGAAYYSTPKLLEKLGCSITTLNANPDGRFTARNAEPVPENLVNLISLMKSGRFDLGIAHDGDADRAVFIDEKGNFIDGDRMLALITKYIAKAGDVVVTPVSSSDTIADICNAIGAKLIRTKVGAPIVARAMIDNGATIGGEENGGVIYGKHQYCRDGAMTVSLVLNLMASTNKKLSELISELPVYYLIKKKVERRVDWPSLARELKKGERVDETDGIKILKDDGWILIRPSGTEKILRIYAHSSDFELANKYCEQYIRKVNDIQDKLSEGHHHHHH | not soluble
MGSDKIHHHHHHMLLPLSSQNVIQHLQAADLCSSEDGKSDIVELPISKKNYNLVVNLADNRKLLVKQERGVENDGILHELFNEWLFHQLLQKFPILGNISAIAPLVVHFDEENSILVRSYLSEYLDLAEFYQNPNVFPKEIAAAIGTTLAALHRTTFQGKEYRDFMATAPQGQFRYHFYNPAQGISSLNPEIFGRIPTEALKFHVLYQCYESLEAAIADLAYEWDACCLTHNDLKLNNILIHSRWNQLDNCLVQLIDWEACTWGDPAFDLGTILASYLEIWLESLVVDPTLELAESLELVMIPLEEIQPSLVALLQAYLQAFPMILEYHPNFLVRVIKFIGLALIHQIQDKINNCKLFDNSHLYMLQVAKNLLTMPEQSILSIFGISEAEILSPVAKVPQVSHPEKEKQLVPLYYEKTRLRGC | not soluble
MSEEVWNGNQGILSVYVSKARDLPNLNKLDKQNVMLRLRIAHMTRASNTLHRAGQNPVFHYLEKFDITPEIKPLMYVEVYCDRRKKSPLPIGRCEIDLLNAIRADPKEGYCTWYELKRSGDEFAGTIFIELTFTPKVPRLNRDDLNKEMDRLDSSMAMRPIPPLPTESEYDYVHGSTMRQITPQCVSTSHEDKDEGQPYRNGNVFSMSSKSDTAVLANSNDPIILPPTFSASMGTTSTLETNDTAISNTSNTKFHFANLRKLKEKINIFKNPDSSTNNCQNESNKVDIEALQKAIGVTSLSYDEDDDDDDENDAFYSSSHRVSHNYNQPPLPPIPTRDDMSNYSSSRNTPLVRRDRPSRLDSSSPNSHPHPSGLNSPKLPPLPTTSNSNFNSRKNSMSPTRKRPPPRLS | soluble
QGHMRVEVFPVEGLPLIKEGDDLAELISSRVRFEDGDVLVVCSTVISKAEGRIRRLEEFNPSERAKEIAARIGKPAEFVQAVLEESEEVLLDFPFLLVKAKFGNVCVNAGIDASNVEEGSLLLPPLDPDGSAEKLRRRILELTGKRVGVIITDTNGRCFRRGVVGFAIGISGVKAMKDWIGRKDLYGRELEVTVECVADEIAAFANLLMGEGGDGIPAVVVRGLNVAGEGSMEEIYRSEEEDVIRRCLKRCLGS | soluble
MPAALIKDFLLTQGLKLPLDEVRAAYLTAQTVMDMGTASIDRSVLWRSDEGWKLADYLSCDNVREDALKRLFMALDSVFSRSTGVRSAAVYALMPSENQAFQLICLSRQGEVLENLWDLDEAAGKVSLACRSAQSGWMNVASDVRRWLDLGELSGERNHASAAQISIPVCTESGGVLGVVHVEFECAECAGTAAQVEWVALALALSEPLKLLLGMSAGKDGSEDV | not soluble
MGHHHHHHSHGPRDIISPELMADYLQPKLLGILAFFNMQLLSSSVGIEDKKMALNSLMSLMKLMGPKHVSSVRVKMMTTLRTGLRFKDDFPELCCRAWDCFVRCLDHACLGSLLSHVIVALLPLIHIQPKETAAIFHYLIIENRDAVQDFLHEIYFLPDHPELKKIKAVLQEYRKETSEST | not soluble
MLKGILYIIGIYQRYLSPLKGPTCRFYPSCSRYAHESLTRYGLVKGLWLTTIRILKCHPFHPGGVDPVKLEHHHHHH | not soluble
MGSDKIHHHHHHMLIKLNDYEKNITQKIKDLKNASGSHSPSIFTMAEQIPELNIKIDSCFLSNPYATALFLRYLKEELIDGQKLRSVLEFYPSQNSIIAKTVADFIGIDPKNVFIGNGAIEIIQAVMHNFVGKKIIVNIPTFSSYYEFAKSETNVVYYQLSKEDNYNLNIEHYLNFVKNENPDSVVLINPNNPDGGYINYEKLRYILSELKYVKNIIIDESFIHFAYENKDYNGINIEYLFKEFHNTIIIKSMSKDFGVAGIRIGYAIMSEDKIRGLLKNGYLWNSSGLSEYFLRLYVRKNFFDEYDKVRREYIQETQTFFRKLSGIKQFKVYPSMANFALVELLDGSSSTDFVAKMLIKYGIYMRTCNDKIGLEGEFIRIASRTLEENDMVLKSICDVFKE | not soluble
MKKVELLAPAGNLEKLKMAVLYGADAVYLGGEEFSLRAYAENFTLDELKAGVEFAHSKGKKVYVTINIFPHNDDLKKIPEYIKEVAGIGVDAIILSDPGILSIVKEIAPDMEIHLSTQANNTNFMSARFWHNHGVKRIILARELSLEEIREIREKTPDSLELEVFVHGAMCISYSGRCLLSNYMAGRDSNRGLCAHPCRWKYYLMEEKRPGEYYPVYENERGTFIFNSRDLCMIEHIPELVESGVSSFKIEGRMKSSFYVATVVKAYREAIDAYYEDKDNYKFDPRLLEEVCKVSHREFTTGFFFNKPGPKDQIYATSSYIREYDFVGVVQKYDKATKIATVEQRNRMYKGEEIEVVNPKGNFFVQKIEWMKNADGEDIDVAPHPQMTVYMPMKEDVEEFAMLRRKSSPNK | soluble
ATTGTQGYTVVKNDWKKAVKQLQDGLKDNSIGKITVSFNDGVVGEVAPKSANKKADRDAAAEKLYNLVNTQLDKLGDGDYVDFSVDYNLENKIITNQADAEAIVTKLNSLNEKTLIDIATKDTFGMVSKTQDSEGKNVAATKALKVKDVATFGLKSGGSEDTGYVVEMKAGAVEDKYGKVGDSTAGIAINLPSTGLEYAGKGTTIDFNKTLKVDVTGGSTPSAVAVSGFVTKDDTDLAKSGTINVRVINAKEESIDIDASSYHMSLEHHHHHH | soluble
